Ends that are not written are not given here. * marks the point of attachment. C16 diacid = O=C(O)CCCCCCCCCCCCCCC(=O)*; C12 diacid = O=C(O)CCCCCCCCCCC(=O)*; Stearoyl = CCCCCCCCCCCCCCCCCC(=O)*; Palmitoyl = CCCCCCCCCCCCCCCC(=O)*; Lauroyl = CCCCCCCCCCCC(=O)*
T1: human GIP receptor (human, UniProt P48546 22-466)
T1 sequence (looked up): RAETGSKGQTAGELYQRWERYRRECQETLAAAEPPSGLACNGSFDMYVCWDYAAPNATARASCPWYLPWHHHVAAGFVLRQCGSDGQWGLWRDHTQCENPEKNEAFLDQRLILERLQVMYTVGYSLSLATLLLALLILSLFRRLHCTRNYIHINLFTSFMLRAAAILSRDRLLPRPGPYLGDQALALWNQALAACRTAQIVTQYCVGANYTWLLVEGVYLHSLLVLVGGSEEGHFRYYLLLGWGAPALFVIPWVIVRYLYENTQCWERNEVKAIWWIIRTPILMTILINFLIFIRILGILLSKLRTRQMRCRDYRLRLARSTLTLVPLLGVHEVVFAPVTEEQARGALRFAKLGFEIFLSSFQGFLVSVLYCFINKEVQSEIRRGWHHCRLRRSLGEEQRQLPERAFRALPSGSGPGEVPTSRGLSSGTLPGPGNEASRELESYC

B1: AT294 [hGIP(3-30)NH2[E3K]-C16diacid/3] (peptide)
peptide: K(C16 diacid)GTFISDYSIAMDKIHQQDFVNWLLAQK-NH2
modifications: N-terminus assumed
SMILES: CC[C@H](C)[C@H](NC(=O)[C@H](CO)NC(=O)[C@H](Cc1ccc(O)cc1)NC(=O)[C@H](CC(=O)O)NC(=O)[C@H](CO)NC(=O)[C@@H](NC(=O)[C@H](Cc1ccccc1)NC(=O)[C@@H](NC(=O)CNC(=O)[C@@H](N)CCCCNC(=O)CCCCCCCCCCCCCCC(=O)O)[C@@H](C)O)[C@@H](C)CC)C(=O)N[C@@H](C)C(=O)N[C@@H](CCSC)C(=O)N[C@@H](CC(=O)O)C(=O)N[C@@H](CCCCN)C(=O)N[C@H](C(=O)N[C@@H](Cc1c[nH]cn1)C(=O)N[C@@H](CCC(N)=O)C(=O)N[C@@H](CCC(N)=O)C(=O)N[C@@H](CC(=O)O)C(=O)N[C@@H](Cc1ccccc1)C(=O)N[C@H](C(=O)N[C@@H](CC(N)=O)C(=O)N[C@@H](Cc1c[nH]c2ccccc12)C(=O)N[C@@H](CC(C)C)C(=O)N[C@@H](CC(C)C)C(=O)N[C@@H](C)C(=O)N[C@@H](CCC(N)=O)C(=O)N[C@@H](CCCCN)C(N)=O)C(C)C)[C@@H](C)CC
B2: AT158 [hGIP(3-30)NH2[H18K]-C16diacid/18] (peptide)
peptide: EGTFISDYSIAMDKIK(C16 diacid)QQDFVNWLLAQK-NH2
modifications: N-terminus assumed
SMILES: CC[C@H](C)[C@H](NC(=O)[C@H](CO)NC(=O)[C@H](Cc1ccc(O)cc1)NC(=O)[C@H](CC(=O)O)NC(=O)[C@H](CO)NC(=O)[C@@H](NC(=O)[C@H](Cc1ccccc1)NC(=O)[C@@H](NC(=O)CNC(=O)[C@@H](N)CCC(=O)O)[C@@H](C)O)[C@@H](C)CC)C(=O)N[C@@H](C)C(=O)N[C@@H](CCSC)C(=O)N[C@@H](CC(=O)O)C(=O)N[C@@H](CCCCN)C(=O)N[C@H](C(=O)N[C@@H](CCCCNC(=O)CCCCCCCCCCCCCCC(=O)O)C(=O)N[C@@H](CCC(N)=O)C(=O)N[C@@H](CCC(N)=O)C(=O)N[C@@H](CC(=O)O)C(=O)N[C@@H](Cc1ccccc1)C(=O)N[C@H](C(=O)N[C@@H](CC(N)=O)C(=O)N[C@@H](Cc1c[nH]c2ccccc12)C(=O)N[C@@H](CC(C)C)C(=O)N[C@@H](CC(C)C)C(=O)N[C@@H](C)C(=O)N[C@@H](CCC(N)=O)C(=O)N[C@@H](CCCCN)C(N)=O)C(C)C)[C@@H](C)CC
B3: AT159 [hGIP(3-30)NH2[K16R; H18K; K30R]-C16diacid/18] (peptide)
peptide: EGTFISDYSIAMDRIK(C16 diacid)QQDFVNWLLAQR-NH2
modifications: N-terminus assumed
SMILES: CC[C@H](C)[C@H](NC(=O)[C@H](CO)NC(=O)[C@H](Cc1ccc(O)cc1)NC(=O)[C@H](CC(=O)O)NC(=O)[C@H](CO)NC(=O)[C@@H](NC(=O)[C@H](Cc1ccccc1)NC(=O)[C@@H](NC(=O)CNC(=O)[C@@H](N)CCC(=O)O)[C@@H](C)O)[C@@H](C)CC)C(=O)N[C@@H](C)C(=O)N[C@@H](CCSC)C(=O)N[C@@H](CC(=O)O)C(=O)N[C@@H](CCCNC(=N)N)C(=O)N[C@H](C(=O)N[C@@H](CCCCNC(=O)CCCCCCCCCCCCCCC(=O)O)C(=O)N[C@@H](CCC(N)=O)C(=O)N[C@@H](CCC(N)=O)C(=O)N[C@@H](CC(=O)O)C(=O)N[C@@H](Cc1ccccc1)C(=O)N[C@H](C(=O)N[C@@H](CC(N)=O)C(=O)N[C@@H](Cc1c[nH]c2ccccc12)C(=O)N[C@@H](CC(C)C)C(=O)N[C@@H](CC(C)C)C(=O)N[C@@H](C)C(=O)N[C@@H](CCC(N)=O)C(=O)N[C@@H](CCCNC(=N)N)C(N)=O)C(C)C)[C@@H](C)CC
B4: AT163 [hGIP(3-30)NH2[H18K]-C16/16] (peptide)
peptide: EGTFISDYSIAMDK(Palmitoyl)IKQQDFVNWLLAQK-NH2
modifications: N-terminus assumed
SMILES: CCCCCCCCCCCCCCCC(=O)NCCCC[C@H](NC(=O)[C@H](CC(=O)O)NC(=O)[C@H](CCSC)NC(=O)[C@H](C)NC(=O)[C@@H](NC(=O)[C@H](CO)NC(=O)[C@H](Cc1ccc(O)cc1)NC(=O)[C@H](CC(=O)O)NC(=O)[C@H](CO)NC(=O)[C@@H](NC(=O)[C@H](Cc1ccccc1)NC(=O)[C@@H](NC(=O)CNC(=O)[C@@H](N)CCC(=O)O)[C@@H](C)O)[C@@H](C)CC)[C@@H](C)CC)C(=O)N[C@H](C(=O)N[C@@H](CCCCN)C(=O)N[C@@H](CCC(N)=O)C(=O)N[C@@H](CCC(N)=O)C(=O)N[C@@H](CC(=O)O)C(=O)N[C@@H](Cc1ccccc1)C(=O)N[C@H](C(=O)N[C@@H](CC(N)=O)C(=O)N[C@@H](Cc1c[nH]c2ccccc12)C(=O)N[C@@H](CC(C)C)C(=O)N[C@@H](CC(C)C)C(=O)N[C@@H](C)C(=O)N[C@@H](CCC(N)=O)C(=O)N[C@@H](CCCCN)C(N)=O)C(C)C)[C@@H](C)CC
B5: AT149 [hGIP(3-30)NH2[H18R; K30R]-C12diacid/3] (peptide)
peptide: {C12 diacid}-EGTFISDYSIAMDKIRQQDFVNWLLAQR-NH2
SMILES: CC[C@H](C)[C@H](NC(=O)[C@H](CO)NC(=O)[C@H](Cc1ccc(O)cc1)NC(=O)[C@H](CC(=O)O)NC(=O)[C@H](CO)NC(=O)[C@@H](NC(=O)[C@H](Cc1ccccc1)NC(=O)[C@@H](NC(=O)CNC(=O)[C@H](CCC(=O)O)NC(=O)CCCCCCCCCCC(=O)O)[C@@H](C)O)[C@@H](C)CC)C(=O)N[C@@H](C)C(=O)N[C@@H](CCSC)C(=O)N[C@@H](CC(=O)O)C(=O)N[C@@H](CCCCN)C(=O)N[C@H](C(=O)N[C@@H](CCCNC(=N)N)C(=O)N[C@@H](CCC(N)=O)C(=O)N[C@@H](CCC(N)=O)C(=O)N[C@@H](CC(=O)O)C(=O)N[C@@H](Cc1ccccc1)C(=O)N[C@H](C(=O)N[C@@H](CC(N)=O)C(=O)N[C@@H](Cc1c[nH]c2ccccc12)C(=O)N[C@@H](CC(C)C)C(=O)N[C@@H](CC(C)C)C(=O)N[C@@H](C)C(=O)N[C@@H](CCC(N)=O)C(=O)N[C@@H](CCCNC(=N)N)C(N)=O)C(C)C)[C@@H](C)CC
B6: AT153 [hGIP(3-30)NH2[H18R; K30R]-C12/16] (peptide)
peptide: EGTFISDYSIAMDK(Lauroyl)IRQQDFVNWLLAQR-NH2
modifications: N-terminus assumed
SMILES: CCCCCCCCCCCC(=O)NCCCC[C@H](NC(=O)[C@H](CC(=O)O)NC(=O)[C@H](CCSC)NC(=O)[C@H](C)NC(=O)[C@@H](NC(=O)[C@H](CO)NC(=O)[C@H](Cc1ccc(O)cc1)NC(=O)[C@H](CC(=O)O)NC(=O)[C@H](CO)NC(=O)[C@@H](NC(=O)[C@H](Cc1ccccc1)NC(=O)[C@@H](NC(=O)CNC(=O)[C@@H](N)CCC(=O)O)[C@@H](C)O)[C@@H](C)CC)[C@@H](C)CC)C(=O)N[C@H](C(=O)N[C@@H](CCCNC(=N)N)C(=O)N[C@@H](CCC(N)=O)C(=O)N[C@@H](CCC(N)=O)C(=O)N[C@@H](CC(=O)O)C(=O)N[C@@H](Cc1ccccc1)C(=O)N[C@H](C(=O)N[C@@H](CC(N)=O)C(=O)N[C@@H](Cc1c[nH]c2ccccc12)C(=O)N[C@@H](CC(C)C)C(=O)N[C@@H](CC(C)C)C(=O)N[C@@H](C)C(=O)N[C@@H](CCC(N)=O)C(=O)N[C@@H](CCCNC(=N)N)C(N)=O)C(C)C)[C@@H](C)CC
B7: AT160 [hGIP(3-30)NH2[H18K]-C18/18] (peptide)
peptide: EGTFISDYSIAMDKIK(Stearoyl)QQDFVNWLLAQK-NH2
modifications: N-terminus assumed
SMILES: CCCCCCCCCCCCCCCCCC(=O)NCCCC[C@H](NC(=O)[C@@H](NC(=O)[C@H](CCCCN)NC(=O)[C@H](CC(=O)O)NC(=O)[C@H](CCSC)NC(=O)[C@H](C)NC(=O)[C@@H](NC(=O)[C@H](CO)NC(=O)[C@H](Cc1ccc(O)cc1)NC(=O)[C@H](CC(=O)O)NC(=O)[C@H](CO)NC(=O)[C@@H](NC(=O)[C@H](Cc1ccccc1)NC(=O)[C@@H](NC(=O)CNC(=O)[C@@H](N)CCC(=O)O)[C@@H](C)O)[C@@H](C)CC)[C@@H](C)CC)[C@@H](C)CC)C(=O)N[C@@H](CCC(N)=O)C(=O)N[C@@H](CCC(N)=O)C(=O)N[C@@H](CC(=O)O)C(=O)N[C@@H](Cc1ccccc1)C(=O)N[C@H](C(=O)N[C@@H](CC(N)=O)C(=O)N[C@@H](Cc1c[nH]c2ccccc12)C(=O)N[C@@H](CC(C)C)C(=O)N[C@@H](CC(C)C)C(=O)N[C@@H](C)C(=O)N[C@@H](CCC(N)=O)C(=O)N[C@@H](CCCCN)C(N)=O)C(C)C

These binders were tested against T1, human GIP receptor (assay: cell-based or functional assay).

Binder | cAMP agonism, EC50 (log) | cAMP agonism, Emax | cAMP agonism, nM (EC50) | cAMP antagonism, log (IC50) | cAMP antagonism, nM (IC50)
Lauroyl-EGTFISDYSIAMDKIHQQDFVNWLLAQK-NH2 [AT148 [hGIP(3-30)NH2-C12/3]] | -7.9 log M | 43% | 13 nM |  | 
B1 | -8.7 log M | 74% | 1.8 nM | -8.6 log M | 2.5 nM
B2 | -8.5 log M | 6% | 3.1 nM | -8.3 log M | 5 nM
EGTFISDYSIAMDK(Lauroyl)IHQQDFVNWLLAQK-NH2 [AT154 [hGIP(3-30)NH2-C12/16]] |  | 0% |  | -7.2 log M | 63 nM
B3 | -8.7 log M | 6% | 2 nM | -8.2 log M | 6 nM
B4 |  | 0% |  | -6.7 log M | 212 nM
B5 |  | 50% |  |  | 
B6 |  | 0% |  | -6.7 log M | 187 nM
B7 | -6 log M | 13% | 962 nM | -7.4 log M | 38 nM
